Data from patent publication US20150023989A1, “NEW ANTIBODY DRUG CONJUGATES (ADCS) AND THE USE THEREOF” (SEATTLE GENETICS, INC., priority 2011, published 2015).

Experiments:
Experiment in all cases: ELISA cross-reactivity of M048-D01 Fab
Conditions in all cases: Fab 1 μg/ml, TRAIL-Fc wells as background
[1] = biological target: T1, hFGFR3-Fc (IIIb) (Homo sapiens, UniProt P22607); type: binding
T1 construct: purchased RnD Systems 1264-FR
Description: (§1) The cross-reactivity of the human antibodies M048-D01-hIgG1 and M048-D01-hIgG1-b of the present application was determined using the parental Fab fragment M048-D01 (comprising Vh: SEQ ID NO: 21 and Vl: SEQ ID NO: 22).
(§2) All of the variants took the form of Fc fusion proteins in carrier-free preparations. The proteins were biotinylated according to manufacturer instructions, using a 2-fold molar excess of biotin-LC-NHS (Pierce; Cat. No. 21347) and desalted using Zeba desalting columns (Pierce; Cat. No. 89889). For the ELISA, 96-well plates pretreated with streptavidin (Pierce, 15500) were loaded overnight at 4° C. with 1 μg/ml biotinylated protein. Wells which had been loaded with biotinylated TRAIL-Fc served as a reference. The next day the plates were washed 3× with PBST (1×PBS admixed with 0.05% Tween 20 (Sigma, P7949)), treated with blocking buffer (PBST admixed with 3% BSA (Sigma A4503)), and again washed three times with PBST. 100 μl of the purified Fab (1 μg/ml) were added, and incubation was carried out at room temperature for 1 hour. After threefold washing with PBST, an HRP-coupled anti-hIgG (Fab-specific) (diluted 1:2500, Sigma, A0293) was added, and incubation took place at room temperature for 1 hour. The colour reaction was activated by addition of 50 μl of TMB (Invitrogen, 2023) and halted after 5-15 minutes by addition of 50 μl of H2SO4 (Merck, 1120801000). The colour reaction was monitored at 450 nm in a plate reader (Tecan). The signal strengths of the wells containing TRAIL-Fc were used as background values, and the signal-to-background ratios were calculated as summarized in Table 3.

[2] = biological target: T2, mFGFR3-Fc (IIIc) (Mus musculus, UniProt Q61851); type: binding
T2 construct: purchased RnD Systems 710-MF
T2 sequence (Q61851 21-369 limits assumed): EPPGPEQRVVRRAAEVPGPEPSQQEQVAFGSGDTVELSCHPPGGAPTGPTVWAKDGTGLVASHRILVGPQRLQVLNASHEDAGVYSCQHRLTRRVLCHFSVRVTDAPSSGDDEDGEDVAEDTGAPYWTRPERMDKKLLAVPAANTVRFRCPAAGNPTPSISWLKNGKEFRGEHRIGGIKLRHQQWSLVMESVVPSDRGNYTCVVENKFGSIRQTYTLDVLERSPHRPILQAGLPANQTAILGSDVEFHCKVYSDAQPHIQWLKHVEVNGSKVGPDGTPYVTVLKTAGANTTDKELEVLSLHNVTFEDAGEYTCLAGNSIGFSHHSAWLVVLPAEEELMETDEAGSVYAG
Description: as §1, §2

[3] = biological target: T3, hFGFR2β-Fc (IIIb) (Homo sapiens, UniProt P21802); type: binding
T3 construct: purchased RnD Systems 665-FR
T3 sequence (P21802 22-680 isoform P21802-22 limits assumed): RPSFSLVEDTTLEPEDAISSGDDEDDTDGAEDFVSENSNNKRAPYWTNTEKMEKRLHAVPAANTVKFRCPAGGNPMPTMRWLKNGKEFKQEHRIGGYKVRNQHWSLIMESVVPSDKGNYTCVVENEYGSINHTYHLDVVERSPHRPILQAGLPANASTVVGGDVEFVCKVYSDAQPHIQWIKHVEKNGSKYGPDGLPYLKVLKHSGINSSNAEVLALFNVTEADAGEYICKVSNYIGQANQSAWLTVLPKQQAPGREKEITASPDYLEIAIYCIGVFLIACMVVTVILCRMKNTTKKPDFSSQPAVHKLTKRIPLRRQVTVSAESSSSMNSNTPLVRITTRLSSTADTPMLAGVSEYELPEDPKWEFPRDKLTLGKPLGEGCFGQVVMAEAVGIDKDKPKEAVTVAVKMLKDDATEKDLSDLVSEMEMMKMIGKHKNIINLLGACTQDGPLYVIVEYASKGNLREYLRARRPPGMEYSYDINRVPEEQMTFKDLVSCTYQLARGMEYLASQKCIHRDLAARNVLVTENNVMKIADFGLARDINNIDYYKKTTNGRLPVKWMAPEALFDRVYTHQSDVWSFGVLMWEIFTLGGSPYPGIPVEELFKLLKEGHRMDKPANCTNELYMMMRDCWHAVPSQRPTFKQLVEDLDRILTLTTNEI
Description: as §1, §2

[4] = biological target: T4, hFGFR1β-Fc (IIIc) (Homo sapiens, UniProt P11362); type: binding
T4 construct: purchased RnD Systems 661-FR
T4 sequence (P11362 22-733 isoform P11362-3 limits assumed): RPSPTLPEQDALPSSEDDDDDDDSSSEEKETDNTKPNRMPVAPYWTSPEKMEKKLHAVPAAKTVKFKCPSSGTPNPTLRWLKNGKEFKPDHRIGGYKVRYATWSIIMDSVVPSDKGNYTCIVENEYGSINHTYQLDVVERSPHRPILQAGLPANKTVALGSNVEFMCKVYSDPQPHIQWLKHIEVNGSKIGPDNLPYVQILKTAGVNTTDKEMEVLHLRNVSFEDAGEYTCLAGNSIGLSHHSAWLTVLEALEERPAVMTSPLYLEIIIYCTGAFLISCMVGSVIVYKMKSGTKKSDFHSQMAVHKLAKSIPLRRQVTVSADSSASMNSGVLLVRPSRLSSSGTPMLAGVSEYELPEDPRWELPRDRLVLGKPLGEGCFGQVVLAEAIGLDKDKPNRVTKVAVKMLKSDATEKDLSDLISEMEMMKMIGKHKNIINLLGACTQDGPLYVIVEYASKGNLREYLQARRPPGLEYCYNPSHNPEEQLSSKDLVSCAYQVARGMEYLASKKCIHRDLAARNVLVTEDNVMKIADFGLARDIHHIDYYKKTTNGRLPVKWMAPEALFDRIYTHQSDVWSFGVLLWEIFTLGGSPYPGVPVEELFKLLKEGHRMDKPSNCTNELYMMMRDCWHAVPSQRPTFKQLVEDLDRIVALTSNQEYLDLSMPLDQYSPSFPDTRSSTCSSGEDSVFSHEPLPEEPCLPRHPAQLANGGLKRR
Description: as §1, §2

[5] = biological target: T5, hFGFR3-Fc (IIIc) (Homo sapiens, UniProt P22607); type: binding
T5 construct: purchased RnD Systems 766-FR
T5 sequence (P22607 23-375 limits assumed): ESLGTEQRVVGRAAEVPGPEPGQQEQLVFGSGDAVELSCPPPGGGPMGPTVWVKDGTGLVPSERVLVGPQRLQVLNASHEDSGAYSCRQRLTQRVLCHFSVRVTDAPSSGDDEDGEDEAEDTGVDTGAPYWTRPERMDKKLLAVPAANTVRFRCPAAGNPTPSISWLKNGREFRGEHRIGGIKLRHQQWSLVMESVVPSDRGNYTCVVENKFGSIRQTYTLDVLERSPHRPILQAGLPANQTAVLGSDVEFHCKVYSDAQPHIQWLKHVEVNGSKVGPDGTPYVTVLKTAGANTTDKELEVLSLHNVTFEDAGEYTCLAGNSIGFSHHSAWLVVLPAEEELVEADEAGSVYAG
Description: as §1, §2

[6] = biological target: T6, hFGFR4-Fc (Homo sapiens, UniProt P22455); type: binding
T6 construct: purchased RnD Systems 685-MF
Description: as §1, §2

[7] = biological target: T7, mFGFR2β-Fc (IIIb) (Mus musculus, UniProt P21803); type: binding
T7 construct: purchased RnD Systems 708-MF
T7 sequence (P21803 22-707 isoform P21803-2 limits assumed): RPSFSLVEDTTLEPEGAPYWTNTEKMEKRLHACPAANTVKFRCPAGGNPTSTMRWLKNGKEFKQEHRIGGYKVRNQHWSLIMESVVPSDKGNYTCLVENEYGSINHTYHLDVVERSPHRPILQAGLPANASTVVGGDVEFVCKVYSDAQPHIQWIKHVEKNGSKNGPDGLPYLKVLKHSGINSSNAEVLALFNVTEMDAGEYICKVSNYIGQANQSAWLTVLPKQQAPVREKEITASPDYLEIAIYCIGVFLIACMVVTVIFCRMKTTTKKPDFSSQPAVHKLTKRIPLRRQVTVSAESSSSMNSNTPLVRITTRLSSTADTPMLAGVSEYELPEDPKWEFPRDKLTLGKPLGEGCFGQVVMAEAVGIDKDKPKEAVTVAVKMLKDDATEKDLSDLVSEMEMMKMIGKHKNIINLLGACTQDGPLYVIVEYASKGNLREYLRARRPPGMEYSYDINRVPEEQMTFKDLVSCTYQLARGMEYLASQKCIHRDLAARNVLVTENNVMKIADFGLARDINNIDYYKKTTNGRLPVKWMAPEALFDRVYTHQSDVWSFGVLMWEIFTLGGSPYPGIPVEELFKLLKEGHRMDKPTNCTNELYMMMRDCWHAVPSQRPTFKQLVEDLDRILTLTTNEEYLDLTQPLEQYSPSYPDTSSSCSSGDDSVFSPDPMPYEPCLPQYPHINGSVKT
Description: as §1, §2

[8] = biological target: T8, hFGFR2α-Fc (IIIb) (Homo sapiens, UniProt P21802); type: binding
T8 construct: purchased RnD Systems 663-FR
T8 sequence (P21802 22-822 isoform P21802-3 limits assumed): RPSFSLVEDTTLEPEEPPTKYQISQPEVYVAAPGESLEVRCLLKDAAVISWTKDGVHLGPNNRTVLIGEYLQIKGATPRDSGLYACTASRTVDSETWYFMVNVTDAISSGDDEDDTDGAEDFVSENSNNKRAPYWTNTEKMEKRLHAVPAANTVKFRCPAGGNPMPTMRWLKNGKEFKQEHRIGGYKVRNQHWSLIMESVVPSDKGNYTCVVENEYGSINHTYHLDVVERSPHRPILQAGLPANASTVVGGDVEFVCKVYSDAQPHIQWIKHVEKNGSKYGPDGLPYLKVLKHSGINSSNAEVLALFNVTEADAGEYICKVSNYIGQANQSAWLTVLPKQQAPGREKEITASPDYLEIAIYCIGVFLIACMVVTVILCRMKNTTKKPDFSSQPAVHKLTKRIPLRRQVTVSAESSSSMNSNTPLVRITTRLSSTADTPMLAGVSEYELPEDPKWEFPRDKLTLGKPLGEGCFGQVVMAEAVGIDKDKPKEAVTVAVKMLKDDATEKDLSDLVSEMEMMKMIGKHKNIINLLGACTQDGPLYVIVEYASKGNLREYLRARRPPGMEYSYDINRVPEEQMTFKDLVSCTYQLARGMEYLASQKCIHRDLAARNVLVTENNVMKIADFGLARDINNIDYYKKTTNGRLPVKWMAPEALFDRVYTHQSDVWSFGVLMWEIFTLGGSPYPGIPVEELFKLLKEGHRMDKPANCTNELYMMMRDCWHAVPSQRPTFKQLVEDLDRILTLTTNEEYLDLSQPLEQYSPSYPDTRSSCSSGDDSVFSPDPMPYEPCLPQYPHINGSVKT
Description: as §1, §2

[9] = system: mFGFR2β-Fc (IIIc); type: binding, Mouse
Description: as §1
as §2, with “After threefold washing with PBST, an HRP-coupled anti-hIgG (Fab-specific) (diluted 1:2500, Sigma, A0293) was added, and incubation took place at room temperature for 1 hour. The colour reaction was activated by addition of 50 μl of TMB (Invitrogen, 2023) and halted after 5-15 minutes by addition of 50 μl of H2SO4 (Merck, 1120801000).” left out

[10] = system: hFGFR1β-Fc (IIIb); type: binding, Human
Description: as §1
as §2, with “After threefold washing with PBST, an HRP-coupled anti-hIgG (Fab-specific) (diluted 1:2500, Sigma, A0293) was added, and incubation took place at room temperature for 1 hour. The colour reaction was activated by addition of 50 μl of TMB (Invitrogen, 2023) and halted after 5-15 minutes by addition of 50 μl of H2SO4 (Merck, 1120801000).” left out

[11] = system: hFGFR2β-Fc (IIIc); type: binding, Human
Description: as §1
as §2, with “After threefold washing with PBST, an HRP-coupled anti-hIgG (Fab-specific) (diluted 1:2500, Sigma, A0293) was added, and incubation took place at room temperature for 1 hour. The colour reaction was activated by addition of 50 μl of TMB (Invitrogen, 2023) and halted after 5-15 minutes by addition of 50 μl of H2SO4 (Merck, 1120801000).” left out

T1 sequence (P22607 23-808 isoform P22607-2 limits assumed): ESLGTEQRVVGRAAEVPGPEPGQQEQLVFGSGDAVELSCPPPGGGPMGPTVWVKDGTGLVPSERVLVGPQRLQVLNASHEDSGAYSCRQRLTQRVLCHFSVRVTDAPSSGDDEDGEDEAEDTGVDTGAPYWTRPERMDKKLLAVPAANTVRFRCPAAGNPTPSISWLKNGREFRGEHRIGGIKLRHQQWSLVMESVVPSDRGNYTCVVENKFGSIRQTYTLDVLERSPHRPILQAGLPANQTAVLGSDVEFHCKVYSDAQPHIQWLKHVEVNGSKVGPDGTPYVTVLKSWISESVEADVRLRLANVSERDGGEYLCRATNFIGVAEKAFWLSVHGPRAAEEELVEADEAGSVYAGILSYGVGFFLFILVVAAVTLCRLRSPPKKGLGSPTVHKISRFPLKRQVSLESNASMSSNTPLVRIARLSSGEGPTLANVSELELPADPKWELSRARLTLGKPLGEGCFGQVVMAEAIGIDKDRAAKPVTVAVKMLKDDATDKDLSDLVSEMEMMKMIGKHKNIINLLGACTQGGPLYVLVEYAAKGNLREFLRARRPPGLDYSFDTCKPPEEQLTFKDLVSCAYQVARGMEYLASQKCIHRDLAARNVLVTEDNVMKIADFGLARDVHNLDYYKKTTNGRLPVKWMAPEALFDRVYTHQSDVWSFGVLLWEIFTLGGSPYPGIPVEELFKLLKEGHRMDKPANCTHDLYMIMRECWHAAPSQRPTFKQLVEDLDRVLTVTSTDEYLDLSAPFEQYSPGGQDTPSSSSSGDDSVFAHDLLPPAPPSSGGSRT

B1: M048-D01 (antibody, V domains shown)
VH: EVQLLESGGGLVQPGGSLRLSCAASGFTFSSYAMSWVRQAPGKGLEWVSAISGSGTSTYYADSVKGRFTISRDNSKNTLYLQMNSLRAEDTAVYYCARVRYNWNHGDWFDPWGQGTLVTVSS
VL: QSVLTQPPSASGTPGQRVTISCSGSSSNIGNNYVSWYQQLPGTAPKLLIYENYNRPAGVPDRFSGSKSGTSASLAISGLRSEDEADYYCSSWDDSLNYWVFGGGTKLTVL
Signal-to-background ratio, hFGFR3-Fc (IIIb) [1]: 0 (0: <2) | Signal-to-background ratio, mFGFR3-Fc (IIIc) [2]: 0 (0: <2) | Signal-to-background ratio, hFGFR2β-Fc (IIIb) [3]: +++ (+++: >5) | Signal-to-background ratio, hFGFR1β-Fc (IIIc) [4]: 0 (0: <2) | Signal-to-background ratio, hFGFR3-Fc (IIIc) [5]: 0 (0: <2) | Signal-to-background ratio, hFGFR4-Fc [6]: 0 (0: <2) | Signal-to-background ratio, mFGFR2β-Fc (IIIb) [7]: +++ (+++: >5) | Signal-to-background ratio, hFGFR2α-Fc (IIIb) [8]: +++ (+++: >5) | Signal-to-background ratio, mFGFR2β-Fc (IIIc) [9]: +++ (+++: >5) | Signal-to-background ratio, hFGFR1β-Fc (IIIb) [10]: 0 (0: <2) | Signal-to-background ratio, hFGFR2β-Fc (IIIc) [11]: +++ (+++: >5)
